Test system: MS2 coat protein
Assay: apparent KD of MS2 coat protein; designed switch direction (-1 OFF switch, 1 ON switch): -1; higher = weaker reporter binding
How it was run: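 SNAP-549-labelled MS2 coat protein was titrated, doubling from 0.7 or 1.5 nM to 3 µM, over designed RNA switches transcribed on Illumina chips by stalled E. coli RNA polymerase. Runs were done without input, with 200 uM small-molecule ligand, or with an oligonucleotide input. Apparent KD is the per-design median over clusters of curve-fitted normalised fluorescence.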

[1] = Eterna round: R95, input ligand: FMN 200 uM
[2] = Eterna round: R95, input ligand: microRNA oligo, concentration not stated
[3] = Eterna round: R95, input ligand: none
[4] = input ligand: microRNA oligo, concentration not stated

| Sequence | apparent KD of MS2 coat protein [1] [µM] | apparent KD of MS2 coat protein [2] [µM] | apparent KD of MS2 coat protein [3] [µM] | apparent KD of MS2 coat protein (input ligand: FMN 200 uM) [µM] | apparent KD of MS2 coat protein (input ligand: none) [µM] | apparent KD of MS2 coat protein [4] [µM] |
| --- | --- | --- | --- | --- | --- | --- |
| UAUUAGCAAGCAUGAUCCCACAUGAGGAUCACCCAUGUGCUCGUCUUAUAAGGUACUGUGACGAAAGUCACGGUACC [Sensor 3, v1 - 97] (puzzle: Sensor v3, turn-off variant 1) | 0.195 | 0.0894 | 0.218 |  |  |  |
| GAUAAUGAAGGAUAUACAGGCGGUCCGUGACUAGUCUUCAUACAUGAGGAUCACCCAUGUAGAAGGUCAAUGUU [Eternabot (L1) Solution 64] (Eterna round: R97, puzzle: Exclusion 2) |  |  |  | 0.0233 | 0.0144 |  |
| UGUGUCCGGGAGGAUAUCAGAACGCUAGUGGUCUGAGAAGGCCUAACAUGAGGAUCACCCAUGUGAUUAUUUAU [Eternabot (L2) Solution 51] (Eterna round: R97, puzzle: Exclusion 6) |  |  |  | 0.0934 | 0.0525 |  |
| ACAUGUUAUCUAGGAUAUUGGACACAUGAGGAUCACCCAUGUACCCGGAGGCUUUACUAUGAGUUCGAGAAGGAGAUGUACAUG [Ex NG2 #71] (Eterna round: R96, puzzle: Exclusion NG 2) |  |  |  | 0.0979 | 0.0731 | 0.0676 |
| CAACCACGUGCAGGAUAUGCGAAGUGAUUCGGUGGUACCACAGCGUAAACAUGAGGAUCACCCAUGUAGAAGGGCAUGAGGGCU [Eternabot solution 16] (Eterna round: R96, puzzle: Exclusion NG 2) |  |  |  | 0.352 | 0.123 | 0.119 |
| AUAUUAAUAGUAAGGAUAUGCGUAUAUAUAAUUAUGCAGAAGGUACAUGAGGAUCACCCAUGUAUUAAUGUAUA [LRO-BmodExc4-01-Oppy's Opus] (Eterna round: R97, puzzle: Brourd's mod of Exclusion 4) |  |  |  | 0.0165 | 0.0156 |  |
| UUUUAACAUGAGGAUCACCCAUGUGAGGAUAUCGAAAUUUAUAUUAAUAUUAAUUAUACGAGAAGGCACAUUUU [JMF 30] (puzzle: Exclusion 1) |  | 0.084 |  |  |  |  |
| GAAUAGAGAGGAUAUGCAAUGAAGGUAGUACGAUAUAUCUGACAUGAGGAUCACCCAUGUAGAAGGCUCAGAUC [EX2 #8] (Eterna round: R97, puzzle: Exclusion 2) |  |  |  | 0.0292 | 0.0293 |  |
| CCCAGUUACGUAGGAUAUUGUACAUGAGGAUCACCCAUGUAAUAAAUGAGGAUUUCGGGUGUCUACAAGAAGGACGGGAUAGGC [Ostracism 17 - Jieux - Exclusion NG 2] (Eterna round: R96, puzzle: Exclusion NG 2) |  |  |  | 0.186 | 0.093 | 0.0806 |
| CAGUACUGAGGAUAUACAUGAGGAUCACCCAUGUCCCAAAAGUAGGAUACUACUAUUAGUAGAAGGCAGUACUG [Fiskers Ex 3 828 mod 25] (puzzle: Exclusion 3) |  | 0.0389 |  |  |  |  |
| AGCCACAGAGGAUAUACAUACAUCCAGUAGUAGAGUCUACUACAUGAGGAUCACCCAUGUAGAAGGCUGUGGCA [Omei Ex2 BD B16] (Eterna round: R97, puzzle: Exclusion 2) |  |  |  | 0.419 | 0.0371 |  |
| GGUUGGCGAGGAUAUACAUGAGGAUCACCCAUGUGAGAGAGAAAAGUGAGGAAGAAAAGUAGAAGGCGCUGACG [salish99_ex3_r3_003] (puzzle: Exclusion 3) | 0.0973 | 0.048 | 0.0361 |  |  |  |
| AGUGCGUCAGGAUAUUCUAUUAAUUACAUGAGGAUCACCCAUGUGAAUGGACAAGGGUGUGAAGAAGGGACGUGCG [Omei Ex5 A17g] (Eterna round: R97, puzzle: Exclusion 5) |  |  |  | 0.36 | 0.872 |  |
| UCGGGUAGAGGAUAUACAUAGAAAUAGAUUCAUGUAAAACUACAUGAGGAUCACCCAUGUAGAAGGCUAUCCGU [Mat - Exclusion 2 - JL Mod - D56] (Eterna round: R97, puzzle: Exclusion 2) |  |  |  | 0.164 | 0.0272 |  |
| GAAAAGUGAGGAUAUUGUUUUUUUUUGAAAACGGGAGAGGGCAAGAAGGCACAUGAGGAUCACCCAUGUAAGGU [Alacar 2] (Eterna round: R97, puzzle: Exclusion 4) |  |  |  | 0.0664 | 0.0441 |  |
| GCAGCACAUGUAGGAUAUCUGCACGAUUAGUGCAGAGAAGGACAUGAGGAUCACCCAUGUAAUUAAGAUCAAUUAUUAAGCUGC [ENG1/3-C1] (Eterna round: R96, puzzle: Exclusion NG 1) |  |  |  | 0.374 | 0.0461 | 0.0364 |
| AUCGUGCAGCUUUGCUGUACGAGUACAUGAGGAUCACCCAUGUAGGAUAUGGUACGCAAAGCGUGCUAGAAGGAUAUGAGAUGU [Mat - Exclusion NG 3 - Mod of JL - D98] (Eterna round: R96, puzzle: Exclusion NG 3) |  |  |  | 0.0304 | 0.0316 | 0.0252 |

| Sequence | apparent KD of MS2 coat protein [1] [µM] | apparent KD of MS2 coat protein [2] [µM] | apparent KD of MS2 coat protein [3] [µM] | apparent KD of MS2 coat protein (input ligand: FMN 200 uM) [µM] | apparent KD of MS2 coat protein (input ligand: none) [µM] | apparent KD of MS2 coat protein [4] [µM] |
| --- | --- | --- | --- | --- | --- | --- |
| CUUUAGUGAGGAUAUCAGUAGUAAUACAAUAGUAUUACUACUGAGAAGGCACAUGAGGAUCACCCAUGUUCUUC [Mat - Exclusion 4 - Mod of Omei - D77] (puzzle: Exclusion 4) |  | 0.0188 |  |  |  |  |
| UAUUAGCAAGCACGAUCCCACAUGAGGAUCACCCAUGUGCUCGUCUUAUAAGGUACUGUGACGAAAGUCACGGUACC [Sensor 3, v1 - 94] (puzzle: Sensor v3, turn-off variant 1) | 0.0642 | 0.847 | 0.0759 |  |  |  |
| UCGUGAUUAGAGGAUAUAUUUUGAGUCAGAACAAUAGAAGGCUAAACAUGAGGAUCACCCAUGUAUAUGUGUAA [JR_Ex6_Sub062] (Eterna round: R97, puzzle: Exclusion 6) |  |  |  | 0.14 | 0.0467 |  |
| ACAUGAGGAUCACCCAUGUACAGGGUUUAGCCUCAUUGUUUGAAGGAUAUACUCAGUUAGUUGUUGUAGAAGGUCACCUUUUAU [JR_ExcNG3_Sub003] (Eterna round: R96, puzzle: Exclusion NG 3) |  |  |  | 3.45 | 1.36 | 1.73 |
| GCUGAAGGGUCGAUUACCAACAUGAGGAUCACCCAUGUUCGGAAUAAUUACAGGUUCGCUCGUCUCGAUGAAAGUCC [Eternabot (L1) Solution 19] (Eterna round: R97, puzzle: Sensor, turn-off variant 1) |  |  |  | 0.0193 | 0.0217 |  |
| AGAAAGCAAGGAUAUACGAGGAGAAGGAGGAAAGUUAAAGGACAUGAGGAUCACCCAUGUAGAAGGUGCGAGAA [JR_Exclu2_Sub042] (puzzle: Exclusion 2) | 0.0333 | 0.0589 | 0.0558 |  |  |  |
| AGGUGUAGAGGAUAUCUAUCCUCGCACAUGAGGAUCACCCAUGUCCUGGUCACCAAGGACGGAGAAGGCUACACCA [Omei Ex5 D20] (Eterna round: R97, puzzle: Exclusion 5) |  |  |  | 0.427 | 0.773 |  |
| AGUACUAACACGCUAGUGUUAGUACAAUAAGCUUGUGAAACAUGAGGAUCACCCAUGUCCUCAUAAGCUCGUCUUAU [salish99_TOv2_r3_058] (puzzle: Sensor v3, turn-off variant 2) | 0.0164 | 0.612 | 0.0161 |  |  |  |
| AGAUUGUUAGGAUAUUCGGACCGCUACGAAGCGUGGUCCAGGGAGAAGGAACAUGAGGAUCACCCAUGUGACCA [Eternabot (L2) Solution 33] (Eterna round: R97, puzzle: Exclusion 4) |  |  |  | 0.0697 | 0.026 |  |
| GGUUGGCGAGGAUAUACAUGAGGAUCACCCAUGUGAGAGACAAAAGUGAGGAAGAAAAGUAGAAGGCGCUGACG [salish99_ex3_r3_022] (puzzle: Exclusion 3) | 2 | 0.0845 | 0.232 |  |  |  |
| CUAGUCCGAGGAUAUAUUAAGUGAUACAUGAGGAUCACCCAUGUAAUUUAAUGGAAAUAAAUAGAAGGCGGACUAG [Mat - Exclusion 5 - JL mod - D52] (puzzle: Exclusion 5) | 0.0447 | 0.0462 | 0.0533 |  |  |  |
| UUUUAACAUGAGGAUCACCCAUGUGAGGAUAUCGAAAUUUAUAUUUAUAUUAAUAAUACGAGAAGGCACAUUUU [JMF 78] (puzzle: Exclusion 1) |  | 0.057 |  |  |  |  |
| GUAGAGUGAGGAUAUACGAGAUCGAAAGAUCGGCGAUCCAAACAUGAGGAUCACCCAUGUAGAAGGCACUCUAC [Eli x2 4.006] (Eterna round: R97, puzzle: Exclusion 2) |  |  |  | 0.202 | 0.14 |  |
| GGUCGUCAAGUCAGGAUAUCGUUUGGUCGGUGUGACGAGAAGGGACAUGAGGAUCACCCAUGUCGUCUCAUCAG [Ex4 #29] (Eterna round: R97, puzzle: Brourd's mod of Exclusion 4) |  |  |  | 0.031 | 0.0308 |  |
| AUUAACAUGUUGAUCAAAUACAUGAGGAUCACCCAUGUAUGCUUUUUGCUCGAUAAGAUCAACUAAUUAAUUAAUUA [StovNew/1-B] (Eterna round: R97, puzzle: Sensor, turn-off variant 1) |  |  |  | 0.0139 | 0.0126 |  |
| UAGUACAUCUAUGGGAGUAACAUGAGGAUCACCCAUGUAUGUCUUGUUUUUUGUUCGUCAUAGGCCUUUUGAUUGGC [JR_SV3TOV1_Sub028] (puzzle: Sensor v3, turn-off variant 1) | 0.107 | 0.228 | 0.113 |  |  |  |
| ACAUGUGUUGUAGGAUAUAGGAUACAUGAGGAUCACCCAUGUGGAUUCAUGUCAAAGGAAGCGUCCUAGAAGGACGGCAACAUG [Ex NG2 #24] (Eterna round: R96, puzzle: Exclusion NG 2) |  |  |  | 0.0466 | 0.0496 | 0.0383 |
